Experimental data published in patent US20200071416A1 (ASTUTE MEDICAL, published 2020).

T1: TIMP-2 region 132PWDTLSTTQKK142 (human)
T1 construct: This exact peptide was not itself the assayed species
T1 peptide: PWDTLSTTQKK

T2: TIMP-2 region 145NHRYQMGCECKI156 (human)
T2 construct: This exact peptide was not itself the assayed species
T2 peptide: NHRYQMGCECKI


Columns and labels:
[1] = biological target: T1, TIMP-2 region 132PWDTLSTTQKK142; assay: Pepscan ELISA on linear 15-mer TIMP-2 peptides
Method: (§1) Synthetic linear peptides were synthesized and screened as described by Slootstra et al. (Slootstra et al., 1996, Mol. Diversity 1, 87-96) and Timmerman et al. (Timmerman et al., 2007, J, Mol Recognit 20, 283-299). The binding of antibody to each peptide was tested in a PEPSCAN-based enzyme-linked immuno assay (ELISA). The covalently linked peptides were incubated with sample (for example 1 μg/mL antibody diluted in a PBS solution containing 5% horse serum (vol/vol) and 4% ovalbumin (weight/vol)) and 1% Tween 80 at 4° C. overnight. After washing, the peptides were incubated with Goat-anti-Rabbit HRP (Jackson Immunoresearch) for 1 hour at 25° C., and subsequently, after washing the peroxidase substrate 2,2′-azino-di-3-ethylbenzthiazoline sulfonate (ABTS) and […] 3% H₂O₂ were added. After 1 hour the color development was measured.

[2] = biological target: T2, TIMP-2 region 145NHRYQMGCECKI156; assay: Pepscan ELISA on linear 15-mer TIMP-2 peptides
Method: as §1

binding result [1]	binding result [2]	Binder
binds	–	antibody 6E2.1 (antibody, V domains shown, Both are partial: a leader, the variable domain and only the start of the constant region) VH: QVQLQQSGPQLVRPGASVKISCKASGYSFTSYWMHWVKQRPGQGLEWIGVIDPSDSETRLNQKFKDKATLTVDKSSSTAYMQLNSPTSEDSAVYYCARRDYGSRYDAMDYWGQGTSVTVSS VL: DIQMTQSSSYLSVSLGGRVTITCKASDHINNWLAWYQQKPGNAPRLLISGATSLETGVPSRFSGSGSGKDYTLSITSLQTEDVATYYCQQYWSTPFTFGSGTKLEIK
–	binds	antibody 40H2-40K3 (antibody, V domains shown) VH: QSLEESGGDLVKPEGSLTLTCTASGFTISSNYYMCWVRQAPGKGLEWVACILGGSGTYTYYATWAKGRFTISKTSSTTVTLQMPSLTAADTATYFCARQAPADTYLYGGYGPFNLWGQGTLVTVSS VL: DIVMTQTPSSVEAAVGGTVTIKCQASESISGWLAWYQQKPGQPPKLLIYRASTLESGVPSRFKGSGSGTEFTLTISDLECADAATYYCQCSYGINGNSEHGNPFGGGTEVVVKR
